assay: soluble on expression in E. coli; label from the status in PepcDB or PDB records

| Sequence | soluble on expression in E. coli |
| --- | --- |
| MGSSHHHHHHGKTIFVIVPTNEEQVAFLEALAKQDELNFDWQNPPTEPGQPVVILIPSDMVEWFLEMLKAKGIPFTVYVEEGGSENLYFQGGGGGGLASGSSSAEGGAKRFSRQQIIQHVKKSLLYTAFDVRWVPQTASFAVVGQYPNNHGALSVYQLHHGDVQPTVEVRLPHPLKCCTFGHNISFSSSGSGSGGNSSSITAANATMNQIATGDFAGSLQIFDLSRLGSTPPSAPNALSDVTAASVLHIPHAHESIINAIDGARYSGPPEVATGSRDGSVKVWDTRQSNKPVVSLNPADPARARDCWTVRLGNSFDPDERVVAAGYDNGDVKIFDLRTQKMLHEMHVNNGVCDLEFDRPDIPMNKLLVSSLEGRVRCYDMRTLHPKLGYAYVEERVSEGTVWCSRALPQNREIFLSGGGGELTLCLYKYPPERTLKDGDGLQRGVAGAVEELNKAKIGDQPINAMDWNRSKEGLAVCASFDQSIRVMLVTKLGLLS | not soluble |
| ALSGECADEIFGGYPWFMRKEMIYANTFPWSRFVNERISLLSDDLKSINLQEYVDARYKENLNNVPVSDEDSPYAKRMRELFYLNIKWFMITLLTRKDRMSMANSLEVRVPFADYRLVEYAFNIPPEIKFLNGREKGILRKAFEGVLPQDVIERKKSPYPKTFDPRYTALVQKWLKKVVEDKTSPILDIIDLKTVNELIETGGSSYKTPWFGQLMKGPQLIAYLLQVNFWLKEY | not soluble |
| MGSDKIHHHHHHMKIMSIELGKFNQLEVVKQVDFGMYLDGGEEGEILLPTRYVPEDCKLGDWLNVFLYLDNEERLIATTLTPLVQVGEFACLEVSWVNQFGAFLNWGLMKDLFVPFSEQKMKMQVGNKYVIHAHIDDESFRIVASAKVDRYLSKEKASYQPGEEVNILIWQKTDLGFKAIIENMYSGLLYDSEIFQTLHTGDVLKAYVKQVREDGKIDLILQKPGFEKIDDFSKTLHRYITEHGGWIGLTDKSPAEEIYDTFGVSKKTFKKAVGDLYKKRLILLHEDGIELVRP | not soluble |
| MIIKRNDMAPSVKAGDAILFYRLSQTYKVEEAVVYEDSKTSITKVGRIIAQAGDEVDLTEQGELKINGHIQNEGLTFIKSREANYPYRIADNSYLILNDYYSQESENYLQDAIAKDAIKGTINTLIRLRNH | not soluble |
| MAHFGKLALSVTAAAVLALSAQARDQIKMAGSSTVYPFSSYVAEEFGATTGNKTPVVESLGTGGGFKVFCAGDGLDTTDIANASRPIKKSEFDNCVANGVTDITGVMIGYDGISIAQSKANAAINFKIEHLFLALAEEVPVDGKLVKNPYKTWNQVDASLPNRPIVVYGPPTTS | not soluble |
| SGRKIGSIVMNANPFTLGHQYLIEQACEQCDWVHLFVVKAENKDFSYADRMAMIKAGSKHLLNLTIHSGSDYIISRATFPSYFIKDQQVVNQSHTALDLSIFRHSIAPALGITHRFVGSEPICTVTRHYNQAMRRWLEEAHDASAPIQVVEIERSQQASQPISASRVRYLLKQFGFAAIADLVPKTTYSYLCQHYAEH | not soluble |
| MGSDKIHHHHHHMREEAPSRAQRVIDNNDILFQCVRPYQKNNYIHRILNTSNQQWVASTGYAQIRTTELPNYIYHLLNTDEFNRKVMVRCTGSSYPAINSEDLATIHLYYTPDKKEQLKISRLLDLLDKRIATQNKIIEKLQSLIKGIAQHCIKESTSGNTYVKLGDICQITTGKLDANAQVDNGIYPFFTCAEQPFKIDSFAFDTEALLISGNGANLGYINYYKGKFNAYQRTVSIR | not soluble |
| MLELAILGLLIESPMHGYELRKRLTGLLGAFRAFSYGSLYPALRRMQADGLIAENAAPAGTPVRRARRVYQLTDKGRRRFGELVADTGPHNYTDDGFGVHLAFFNRTPAEARMRILEGRRRQVEERREGLREAVARASSSFDRYTRQLHQLGLESSEREVKWLNELIAAERAAPNPAEQT | not soluble |
| MTNPWEVSDAEYQKNFAMFGQLTGGQPFMDAVTARNALMRSNLPTQVLSQIWALSDLDKDGRLDIREYSIAMRLALNCLAGIPIPPQLPPSLLVVPARNAPPTWPGSRHGSVDYSQTLPPAIDRRMSQSYIPSAPVSIAGTPSSRHNSISAGSPLNNDRNVFEGRQLENWAIPHHNKLKYSQLFNALDKERLGSLSSQVGRSALGLSGLPTNVLAHIWFLSDVNKDGKLSVDEYAISQYMIEMFKSGFALPKITPLELVRMCGISSRSANNTPELEPGAEPPQKSPAPKTFEDKRQDNLSKGQAELERRRRVLEEEEQRRRAEVEKKEREEEAKKNRERQEKERQAEVERQAELERQRIIEAQREEEEKKRRLEMERRREEDEKMRKVQMEKAKVKQMQVQMPEQKKWNFYNQKQQENERLAQRQQREKTLQFQLQALDEKVIDVEVDIGKAKEAVAEVTGFIERMRSTRDEKVARIKELQETNQKTAIESQELGHQLLQKQSAHKETTQRKSELEALRRKRDAIRKAIEDAALELSTEKEKSYNQTEILKTNKEKYKTDVYSKLVAKREEYRNSFELLVHAQTHARSKIGEFEAKSAPASAAPAPAPAPAPTTTNGFPANFNDAFGEFDKTDASQRFDADFGATSTADPFAQIAQAPAHSKGAVDQSAFNIHDTYKCRALFAFEARSEDELSFEPGDVIIVFQSHAAEPGWRAGQLREKVGWFPEAFVEAIAAVPTPGGDPPIQNMPPNMTPSSSVDQIGVKAARKAEIAAAMGLTEGGAPPASSAPAAAAVISQCIAQFQWRARNEEDLSFAKGDTIEVLEKQEMKWKGRNPAGEIGWFPKSYVKEVGATTSTTTPIVSPSKASAGAPGAAAGAQYDVVPSDVTLQASETAPQQQLYTVIYDFEAVETTDLALHVGDTILVLEKNDEWWKGRCNGREGIFPANYVEISVQQAGDPTPPTQAPTPAAPPTVLCEAKVVVDFVASAPNQLGIKVGEIVKIREKSAAGWWEGELIRNGKPIAGWFPGEYVKVLEEAASPATRATAVYDYEASQPDELGFKTGDVIIVTDKSEAEWWSGHREQDPSKSGLFPSNYVQQQ | not soluble |
| MASALRPPRVPKPKGVLPSHYYESFLEKKGPCDRDYKKFWAGLQGLTIYFYNSNRDFQHVEKLNLGAFEKLTDEIPWGSSRDPGTHFSLILRNQEIKFKVETLECREMWKGFILTVVELRVPTDLTLLPGHLYMMSEVLAKEEARRALETPSCFLKVSRLEAQLLLERYPECGNLLLRPSGDGADGVSVTTRQMHNGTHVVRHYKVKREGPKYVIDVEQPFSCTSLDAVVNYFVSHTKKALVPFLLDEDYEKVLGYVEADKENGENVWVAPSAPGPGPAPCTGGPKPLSPASSQDKLPPLPPLPNQEENYVTPIGDGPAVDYENQDVASSSWPVILKPKKLPKPPAKLPKPPVGPKPEPKVFNGGLGRKLPVSSAQPLFPTAGLADMTAELQKKLEKRRALEH | soluble |
| MALTNAQILAVIDSWEETVGQFPVITHHVPLGGGLQGTLHCYEIPLAAPYGVGFAKNGPTRWQYKRTINQVVHRWGSHTVPFLLEPDNINGKTCTASHLCHNTRCHNPLHLCWESADDNKGRNWCPGPNGGCVHAVVCLRQGPLYGPGATVAGPQQRGSHFVV | soluble |
| MSLTRGEARRPPQEFDRVLSSMCTTPHPAAREAAQAFLATNPGDPETYPAVAERERDAVALLGEIVGLSSPHGYIAAGGTEANLQAVRAARNRADADAVNVVAPASAHFSFQKAADVLGVELRLAPTDGDHRADVAAVADLVDGDTAVVVGVAGTTEYGRVDPIPALADIAAGVDANLHVDAAWGGFVLPFTDHDWSFADAPVNTMAIDPHKMGQAPVPAGGFLARDPETLDALAIETPYLESDTQPTLGGTRSGAGVAGALASLRALWPDGYREQYERTQGNAEYLAAELAARGYDVVDPELPLVAADMPDAEFQALREEGWRISRTASDALRVVCMPHVTREMLAAFLDDVDALAEGHHHHHH | not soluble |
| AGVNDDMPLKECYRTMWLNIWNLAGSNLNAISNRVQYDSLPCTTRNKTWELERKMFAQVDRLFNQGKEEGVFKPLDNEVLSGLSFEASVALARKHALGFYQLDDDALEAAIEASWDAIIKH | not soluble |
| VLRHISPAFAEDPLRVLRAARFMARLAPLGFSIAPETLAMMRQMAANGELNSLIPERIWKELSRSLTYTQPAAFLHTLRTVNALEVVLPELNALYGVPQHADYHPEIDTGLHQELVSDIAAKLAPGDMLIGFAALCHDLGKALTPRATWPHHPMHEQRGMAPTQQLSERLKVPRNYQQLALIACREHLNVHRLSKLHDNTVYELLQRCDAFRRPERIAQLAIVCEADYRGRYGHEDANYPQG | not soluble |
| STSPLSDLLNLDLSDTKKIIAEYIWIGGSGMDIRSKARTLPGPVSNPTKLPKWNYDGSSTDQAAGDDSEVILYPQAIFKDPFRKGNNILVMCDAYRPAGDPIPTNNRHKAVKIFDHPNVKAEEPWFGIEQGYTLLKKDVKWPLGWPLGGFPGPQGPYYCAVGADKAFGRDIVDAHYKACLYSGLSIGGANGEVMPGQWEFQISPTVGIGAGGQLWVARYILERITEICGVIVSFDPKPIQGDWNGAAAHTNFSTKSMRKDGGLDLIKEAIKKLEVKHKQHIAAYGEGNERRLTGKHETADINTFSWGVADRGASVRVGRDTEKEGKGYFEDRRPSSNMDPYLVTSMIAETTIL | soluble |
| MCAVLRQPKCVKLRALHSACKFGVAARSCQELLRKGCVRFQLPMPGSRLCLYEDGTEVTDDCFPGLPNDAELLLLTAGETWHGYVSDITRFLSVFNEPHAGVIQAARQQLSDEQAPLRQKLLADLLHHVSQNITAETREQDPSWFEGLESRFRNKSGYLRYSCESRIRGYLREVSAYTSMVDEAAQEEYLRVLGSMCQKLKSVQYNGSYFDRGAEASSRLCTPEGWFSCQGPFDLESCLSKHSINPYGNRESRILFSTWNLDHIIEKKRTVVPTLAEAIQDGREVNWEYFYSLLFTAENLKLVHIACHKKTTHKLECDRSRIYRPQTGS | soluble |
| MSDEKKGGETEHINLKVLGQDNAVVQFKIKKHTPLRKLMNAYCDRAGLSMQVVRFRFDGQPINENDTPTSLEMEEGDTIEVYQQQTGG | soluble |
| MSLAQNMTIKDDFIHAFSSNANEPDWFLDIRRNAFKAYGELDLPFVDKTKITRWNFTKFETFIPFKEGVTNETLPEKVANLVDLDNKEANFYVQMDERPARLQLQQELVDQGVIFTDIISAVKNHPELVKKYFMKDAVQVNEHKLTAFHAALVNGGIFLYVPKNVEVKSPIQAVFVQDKAESPLVNHVLLVADDNSAVTYVENYVTVNNEPKGIVSIVEEVIAEKNARITFGGVDNLASEVTAYVNRRGHIGTDSQIEWALGLMNDGDTINENVTNLMGDGSSADVKTVTVGRGKQTQNVTTRVTHYGKASNGTILSHGVMKERATTIFNGIGHIKHGASKSDAQQESRVLMLSPEARGDANPILLIDENDVVAGHAASVGRVDPLQLFYLMSRGISQKEAERLVIHGFLDPVVRQLPIESVKTMLREVIEGKVREGHHHHHH | soluble |
| MSQIIWGAYAQRNTEDHPPAYAPGYKTSVLRSPKNALISIAETLSEVTAPHFSADKFGPKDNDLILNYAKDGLPIGERVIVHGYVRDQFGRPVKNALVEVWQANASGRYRHPNDQYIGAMDPNFGGCGRMLTDDNGYYVFRTIKPGPYPWRNRINEWSPAHIHFSLIADGWAQRLISQFYFEGDTLIDSCPILKTIPSEQQRRALIALEDKSNFIEADSRCYRFDITLRGRRATYFENDLT | soluble |
| MSLRHSGAPLSPRNVCPMKTIAPCMAAMMLLSGCNGVPTSYVSDPVYSQAFVVTSGAPLPMLLMASAIQWNEDYAVTAKHTPFLRNVVHEGLGDVVFFKHKASSVPHWRQYVPGEAVTAVGFNSFMMPMQGKGHALSSLVRLEGTPGSVFYSVHDGPITKGMSGGPVFADDGKVVGINVAIIPTDEINAGKRPDLVGKDRISVFMSFSEIDKEWRRYQYLLAHKAKPKAPAAVKGYVAVAAKEGHHHHHH | not soluble |
